We go through 33 molecules from patent US20040048327A1 (GEORGIA TECH RESEARCH, published 2004).

Numbered stars: 1 amine (or outer) side, 2 acyl side, 3 side chain; on linkers, the order of the positions; unused ones are H or OH. Square brackets hold non-standard residues; d marks the D form. Ends that are not written are not given here. * marks the point of attachment. AAsp = aza-Asp, O=C(N(CC(=O)[*:3])N[*:1])[*:2]; azaAsp = O=C(N(CC(=O)[*:3])N[*:1])[*:2]; PhPr = N-terminal cap as named (PhPr); trans‑EP‑CH2CH2Ph = not defined here; Hydrocinnamoyl = O=C(CCc1ccccc1)*; Cbz = O=C(OCc1ccccc1)*; NHBn = c1ccc(CN*)cc1

B1: PhPr-Val-Ala-AAsp-(R,R)-EP-CONHCH2CH2Ph (peptide)
peptide: Hydrocinnamoyl-Val-Ala-[AAsp]-{(R,R)‑EP‑CONHCH2CH2Ph}
B2: PhPr-Val-Ala-AAsp-(R,R)-EP-CO-Ala-NHCH2Ph (peptide)
peptide: Hydrocinnamoyl-Val-Ala-[AAsp]-{(R,R)‑EP‑CO-Ala-NHBn}
B3: PhPr-Val-Ala-AAsp-trans-EP-CH2CH2Ph (peptide)
peptide: Hydrocinnamoyl-Val-Ala-[AAsp]-{trans‑EP‑CH2CH2Ph}
modifications: reading uncertain; also: printed as PhPr-Val-Ala-AAsp-trans-EP-CH2CH2Ph
B4: PhPr-Val-Ala-AAsp-(S,S)-EP-COOCH2CH2Ph (peptide)
peptide: Hydrocinnamoyl-Val-Ala-[AAsp]-{(S,S)‑EP‑COOCH2CH2Ph}
B5: PhPr-Val-Ala-AAsp-(S,S)-EP-CO-Tyr-NH2 (peptide)
peptide: PhPr-Val-Ala-[AAsp]-{(S,S)‑EP‑CO-Tyr-NH2}
B6: Cbz-Asp-Glu-Val-AAsp-(S,S)-EP-COOCH2Ph (peptide)
peptide: Cbz-DEV[azaAsp]-{(S,S)‑EP‑COOCH2Ph}
B7: PhPr-Val-Ala-AAsp-(S,S)-EP-CO-Ala-NHCH2Ph (peptide)
peptide: PhPr-Val-Ala-[AAsp]-{(S,S)‑EP‑CO-Ala-NHBn}
B8: PhPr-Val-Ala-AAsp-(R,R)-EP-CONHCH2CH(OH)Ph (peptide)
peptide: Hydrocinnamoyl-Val-Ala-[AAsp]-{(R,R)‑EP‑CONHCH2CH(OH)Ph}
B9: PhPr-Val-Ala-AAsp-(S,S)-EP-CONHCH2CH2Ph (peptide)
peptide: PhPr-Val-Ala-[AAsp]-{(S,S)‑EP‑CONHCH2CH2Ph}
B10: PhPr-Val-Ala-AAsp-(S,S)-EP-COOEt (peptide)
peptide: Hydrocinnamoyl-Val-Ala-[AAsp]-{(S,S)‑EP‑COOEt}
B11: PhPr-Val-Ala-AAsp-(R,R)-EP-COOEt (peptide)
peptide: Hydrocinnamoyl-Val-Ala-[AAsp]-{(R,R)‑EP‑COOEt}
B12: Cbz-Asp-Glu-Val-AAsp-(S,S)-EP-CO-Phe-NH2 (peptide)
peptide: Cbz-DEV[azaAsp]-{(S,S)‑EP‑CO-Phe-NH2}
B13: Cbz-Asp-Glu-Val-AAsp-(2R, 3R)-EP-COOEt (peptide)
peptide: Cbz-DEVD
modifications: not fully specified (residue 4, C-terminus); printed as Cbz-Asp-Glu-Val-AAsp-(2R, 3R)-EP-COOEt
B14: Cbz-Glu-Val-AAsp-(2S,3S)-EP-COOEt (peptide)
peptide: Cbz-Glu-Val-[azaAsp]-{(2S,3S)‑EP‑COOEt}
B15: PhPr-Val-Ala-AAsp-(R,R)-EP-CO-Phe-NH2 (peptide)
peptide: Hydrocinnamoyl-Val-Ala-[AAsp]-{(R,R)‑EP‑CO-Phe-NH2}
B16: PhPr-Val-Ala-AAsp-(S,S)-EP-CONHCH2CH(OH)Ph (peptide)
peptide: PhPr-Val-Ala-[AAsp]-{(S,S)‑EP‑CONHCH2CH(OH)Ph}
B17: PhPr-Val-Ala-AAsp-(2S, 3S)-EP-COOCH2Ph (peptide)
peptide: PhPr-Val-Ala-[AAsp]-{(2S,3S)‑EP‑COOCH2Ph}
B18: Cbz-Asp-Glu-Val-AAsp-(S,S)-EP-CONHCH2Ph (peptide)
peptide: Cbz-DEV[azaAsp]-{(S,S)‑EP‑CONHCH2Ph}
B19: PhPr-Val-Ala-AAsp-(S,S)-EP-CO-Leu-NH2 (peptide)
peptide: PhPr-Val-Ala-[AAsp]-{(S,S)‑EP‑CO-Leu-NH2}
B20: PhPr-Val-Ala-AAsp-(S,S)-EP-CONHCH2Ph (peptide)
peptide: Hydrocinnamoyl-Val-Ala-[AAsp]-{(S,S)‑EP‑CONHCH2Ph}
B21: Cbz-Asp-Glu-Val-AAsp-(2S, 3S)-EP-COOEt (peptide)
peptide: Cbz-DEVD
modifications: not fully specified (residue 4, C-terminus); printed as Cbz-Asp-Glu-Val-AAsp-(2S, 3S)-EP-COOEt
B22: PhPr-Val-Ala-AAsp-(R,R)-EP-CONHCH2Ph (peptide)
peptide: Hydrocinnamoyl-Val-Ala-[AAsp]-{(R,R)‑EP‑CONHCH2Ph}
B23: Cbz-Glu-Val-AAsp-(R,R)-EP-CO-Phe-NH2 (peptide)
peptide: Cbz-Glu-Val-[azaAsp]-{(R,R)‑EP‑CO-Phe-NH2}
B24: PhPr-Val-Ala-AAsp-(S,S)-EP-CO-Phe-NH2 (peptide)
peptide: PhPr-Val-Ala-[AAsp]-{(S,S)‑EP‑CO-Phe-NH2}
B25: PhPr-Val-Ala-AAsp-trans-EP-COOCH2Ph (peptide)
peptide: PhPr-Val-Ala-[AAsp]-{trans‑EP‑COOCH2Ph}
B26: PhPr-Val-Ala-AAsp-(2R, 3R)-EP-COOCH2Ph (peptide)
peptide: Hydrocinnamoyl-Val-Ala-[AAsp]-{(2R,3R)‑EP‑COOCH2Ph}
B27: Cbz-Glu-Val-AAsp-(S,S)-EP-CONHCH2CH2Ph (peptide)
peptide: Cbz-Glu-Val-[azaAsp]-{(S,S)‑EP‑CONHCH2CH2Ph}
B28: PhPr-Val-Ala-AAsp-(S,S)-EP-CONHCH2CH3 (peptide)
peptide: Hydrocinnamoyl-Val-Ala-[AAsp]-{(S,S)‑EP‑CONHCH2CH3}
B29: Cbz-Val-AAsp-(S, S)-EP-COOH (peptide)
peptide: Cbz-Val-[azaAsp]-{(S,S)‑EP‑COOH}
B30: Cbz-Val-AAsp-(trans)-EP-CH2CH2Ph (peptide)
peptide: Cbz-Val-[AAsp]-{(trans)‑EP‑CH2CH2Ph}
B31: Cbz-Val-AAsp-(S,S)-EP-COOEt (peptide)
peptide: Cbz-Val-[azaAsp]-{(S,S)‑EP‑COOEt}
B32: Cbz-Val-AAsp-(trans)-EP-Ph-4-Cl (peptide)
peptide: Cbz-Val-[AAsp]-{(trans)‑EP‑Ph‑4‑Cl}
B33: Cbz-Ile-Glu-Thr-AAsp-(S,S)-EP-CO-Ala-NHCH2Ph (peptide)
peptide: Cbz-IET[azaAsp]-{(S,S)‑EP‑CO-Ala-NHBn}

One assay addresses T1, autolytically stable caspase-1 variant (D381 E) (UniProt P29466 120-404, limits assumed).
T1 sequence (looked up): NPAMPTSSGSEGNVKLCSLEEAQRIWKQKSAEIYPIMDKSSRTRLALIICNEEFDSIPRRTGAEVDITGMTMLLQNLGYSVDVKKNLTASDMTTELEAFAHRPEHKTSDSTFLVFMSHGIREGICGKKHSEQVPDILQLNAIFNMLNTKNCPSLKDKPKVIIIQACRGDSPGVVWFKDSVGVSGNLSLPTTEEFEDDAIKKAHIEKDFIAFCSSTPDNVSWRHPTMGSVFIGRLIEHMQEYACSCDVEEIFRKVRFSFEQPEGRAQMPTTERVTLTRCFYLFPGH
The assay is described as follows: cell-based or functional assay.
B1: the k2 came to 950 M⁻¹ s⁻¹.

B2 yielded a k2 of 268 M⁻¹ s⁻¹.

In turn, B3 had a k2 of 300 M⁻¹ s⁻¹.

In turn, B4 displayed a k2 of 56600 M⁻¹ s⁻¹.

In turn, B5 displayed a k2 of 3240 M⁻¹ s⁻¹.

B6 returned a k2 of 54700 M⁻¹ s⁻¹.

In the case of B7, the k2 amounted to 13400 M⁻¹ s⁻¹.

B8: the k2 is 400 M⁻¹ s⁻¹.

B9: the k2 was determined as 17200 M⁻¹ s⁻¹.

B10 gave a k2 of 32200 M⁻¹ s⁻¹.

B11 yielded a k2 of 6290 M⁻¹ s⁻¹.

The molecule B12 gave a k2 of 9250 M⁻¹ s⁻¹.

For B13, the k2 turned out to be 4320 M⁻¹ s⁻¹.

Take B14: the k2 was 58500 M⁻¹ s⁻¹.

As for B15, the k2 amounted to 330 M⁻¹ s⁻¹.

In turn, B16 had a k2 of 12300 M⁻¹ s⁻¹.

Take B17: the k2 is 52100 M⁻¹ s⁻¹.

B18 registered a k2 of 25400 M⁻¹ s⁻¹.

Take B19: the k2 turned out to be 26100 M⁻¹ s⁻¹.

B20 displayed a k2 of 65900 M⁻¹ s⁻¹.

For B21, the k2 was 11800 M⁻¹ s⁻¹.

In turn, B22 showed a k2 of 1630 M⁻¹ s⁻¹.

For B23, the k2 stood at 1040 M⁻¹ s⁻¹.

Molecule B24 showed a k2 of 32700 M⁻¹ s⁻¹.

The molecule B25 yielded a k2 of 18100 M⁻¹ s⁻¹.

B26 came in with a k2 of 1860 M⁻¹ s⁻¹.

For B27, the k2 was 41100 M⁻¹ s⁻¹.

The target of another assay is T2, caspase-3 (UniProt P42574 29-277, limits assumed).
T2 sequence (looked up): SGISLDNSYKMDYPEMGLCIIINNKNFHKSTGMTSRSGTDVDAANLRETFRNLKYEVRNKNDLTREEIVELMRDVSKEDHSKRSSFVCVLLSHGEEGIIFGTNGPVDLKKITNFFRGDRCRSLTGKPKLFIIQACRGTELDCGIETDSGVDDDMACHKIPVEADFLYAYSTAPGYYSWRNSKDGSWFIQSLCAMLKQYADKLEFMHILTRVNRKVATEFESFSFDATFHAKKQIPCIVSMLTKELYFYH
The assay is described as follows: cell-based or functional assay.
For the molecule B4, the k2 was 2110 M⁻¹ s⁻¹.

Take B5: the k2 amounted to 87 M⁻¹ s⁻¹.

On to B6, for which the k2 amounted to 1.92e+06 M⁻¹ s⁻¹.

For B7, the k2 came to 260 M⁻¹ s⁻¹.

B9 had a k2 of 1110 M⁻¹ s⁻¹.

For the molecule B10, the k2 stood at 1040 M⁻¹ s⁻¹.

In the case of B12, the k2 is 722000 M⁻¹ s⁻¹.

B28 showed a k2 of 1910 M⁻¹ s⁻¹.

Consider B29, for which the k2 turned out to be 1110 M⁻¹ s⁻¹.

B13 came in with a k2 of 464000 M⁻¹ s⁻¹.

In turn, B14 returned a k2 of 50500 M⁻¹ s⁻¹.

The molecule B30 displayed a k2 of 310 M⁻¹ s⁻¹.

For the molecule B31, the k2 was 3650 M⁻¹ s⁻¹.

B32 gave a k2 of 145 M⁻¹ s⁻¹.

Take B16: the k2 amounted to 510 M⁻¹ s⁻¹.

On to B17, for which the k2 was found to be 1470 M⁻¹ s⁻¹.

Molecule B18 showed a k2 of 1.1e+06 M⁻¹ s⁻¹.

The molecule B19 displayed a k2 of 420 M⁻¹ s⁻¹.

Turning to B20, the k2 stood at 1610 M⁻¹ s⁻¹.

For the molecule B21, the k2 was 1.07e+06 M⁻¹ s⁻¹.

Consider B23, for which the k2 was found to be 470 M⁻¹ s⁻¹.

B24: the k2 was found to be 625 M⁻¹ s⁻¹.

As for B25, the k2 amounted to 680 M⁻¹ s⁻¹.

B33: the k2 was 3050 M⁻¹ s⁻¹.

In turn, B27 showed a k2 of 27300 M⁻¹ s⁻¹.
